Consider one substance from paper doi:10.1101/2022.08.26.505460.

This assay has as its target FN3^WDR5-cpYFP fusion protein.

For the substance “WD40-repeat protein 5 (WDR5) (from UniProt P61964 31-334) (natural protein)”, the Kd was 0.727 µM.

One may read the Kd as a measure of binding affinity in units of concentration.
